Measured values published in patent US7534431.

Target: carcinoembryonic antigen (CEA) (UniProt P06731)
Experiment: size-exclusion HPLC shift of radioiodinated bispecific conjugate in the presence of excess CEA

UniProt P06731, sequence (P06731 35-685 limits assumed): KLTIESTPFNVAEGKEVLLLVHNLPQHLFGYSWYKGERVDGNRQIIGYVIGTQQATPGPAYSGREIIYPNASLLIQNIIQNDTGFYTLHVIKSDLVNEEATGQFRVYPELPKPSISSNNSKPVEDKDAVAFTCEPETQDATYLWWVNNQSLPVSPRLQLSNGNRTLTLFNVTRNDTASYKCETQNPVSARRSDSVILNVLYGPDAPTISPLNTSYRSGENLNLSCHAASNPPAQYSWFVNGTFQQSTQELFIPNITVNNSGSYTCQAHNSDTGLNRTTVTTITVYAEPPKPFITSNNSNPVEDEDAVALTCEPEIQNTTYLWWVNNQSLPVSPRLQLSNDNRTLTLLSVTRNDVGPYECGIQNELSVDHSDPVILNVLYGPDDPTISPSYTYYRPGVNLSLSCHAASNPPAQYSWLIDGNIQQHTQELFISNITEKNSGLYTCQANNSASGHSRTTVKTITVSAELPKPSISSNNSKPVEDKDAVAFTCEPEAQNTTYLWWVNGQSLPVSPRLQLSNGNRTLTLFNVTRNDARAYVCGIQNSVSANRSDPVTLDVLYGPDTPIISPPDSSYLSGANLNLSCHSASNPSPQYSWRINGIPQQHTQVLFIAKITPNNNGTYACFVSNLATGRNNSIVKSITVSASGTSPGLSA

- immunoreactivity (fraction of radioiodinated sample shifted by excess CEA): > 85%
Substance: hMN-14×734 bispecific antibody (Fab' of humanized anti-CEA hMN-14 coupled to Fab' of murine anti-indium-DTPA 734)
